Laboratory results from patent publication US20030198598A1, “Polypeptide derivatives” (priority 1989, published 2003).
Where a SMILES comes first, the peptide text is derived from it. [ ]: non-standard residue; d: D form. The star is where a group is joined. DTPA = O=C(O)CN(CCN(CC(=O)O)CC(=O)O)CCN(CC(=O)O)CC(=O)*; dPhe(4-Cl) = N[C@H](Cc1ccc(Cl)cc1)C(=O)O

Legend:
[1] = biological target: T1, LHRH-receptors (Rattus norvegicus, UniProt P30969); test: Binding assay on LHRH receptor positive anterior pituitary membranes; set-up: species or system male Sprague-Dawley rats; settings: labelled with 0.4 mCi 111InCl3, 10^-6 M (DAla6)LHRH for non-specific binding
T1 construct: LHRH receptor positive anterior pituitary membranes from male Sprague-Dawley rats; from tissue; host or cells: anterior pituitary membranes of male Sprague-Dawley rats
T1 sequence (P30969 1-327): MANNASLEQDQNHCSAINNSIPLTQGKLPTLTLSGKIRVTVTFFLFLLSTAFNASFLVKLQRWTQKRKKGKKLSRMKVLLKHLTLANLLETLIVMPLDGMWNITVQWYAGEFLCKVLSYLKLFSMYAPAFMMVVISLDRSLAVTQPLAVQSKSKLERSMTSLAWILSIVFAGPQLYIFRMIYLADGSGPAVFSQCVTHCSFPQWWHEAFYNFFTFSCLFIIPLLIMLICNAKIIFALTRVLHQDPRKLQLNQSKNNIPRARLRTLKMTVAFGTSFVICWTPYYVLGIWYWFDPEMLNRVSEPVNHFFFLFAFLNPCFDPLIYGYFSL

[2] = biological target: T2, EGF receptor (Homo sapiens, UniProt P00533); test: Inhibition of specifically bound [125I]-EGF on membranes of an EGF receptor positive human tumor; type: binding; settings: 30 min at 37° C
T2 construct: Membranes are isolated by differential centrifugation; from tissue; host or cells: EGF receptor positive human tumor (membranes)
Description: (§1) An EGF receptor positive human tumor is removed and immediately stored at −70° C. During the subsequent isolation procedure this material is kept at 0 to 4° C. The tumor tissue is dissected into small cubes prior to homogenisation in 5 parts of Buffer A (20 mM HEPES, 0.1 mM EDTA and 250 mM sucrose, pH 7.4). Membranes are isolated by differential centrifugation. The material is then diluted in the incubation buffer containing 30 mM HEPES, pH 7.4, 1 mg/ml BSA and 1 mM benzamidine. The test mixture (200 μl final volume) contains 100 000 cpm [^125I]-EGF, the tissue (5 to 25 μg protein/assay) and compound of Example 3 at a concentration of 10^−9 M. After mixing the icecold test solution on a vortex the tubes (polypropylene) are transfered to a waterbath and incubated for 30 min at 37° C. The reaction is stopped by addition of icecold Hank's or Tris buffer (4 ml). The Tris buffer contains 10 mM Tris in 0.9% sodium chloride solution and is adjusted to pH 7.4. Routinely, filtration buffers contain 1% BSA (Fraction V) to suppress non-specific binding to the glass fiber filters (type A/E) that have been soaked in the filtration buffer a few minutes prior to use. The tubes are rinsed with 4 ml of the filtration buffer and the rinsing fluid is put over the respective filters. A third wash of the filters is followed by drying and the measurement of the filter-bound radioactivity in a γ-counter. […]

[3] = biological target: T2, EGF receptor; test: Similar binding assay with the 111In labelled compound as test substance, non-specific binding with 10^-7 M EGF; settings: compound of Example 3 labelled with 0.2 mCi 111InCl3; controls with 10^-7 M EGF
Description: as §1, with “The test mixture (200 μl final volume) contains 100 000 cpm [^125I]-EGF, the tissue (5 to 25 μg protein/assay) and compound of Example 3 at a concentration of 10^−9 M.” left out, “γ-counter. The washing of the filters takes approximately 10 sec.” for “γ-counter.”

[4] = system: EGF receptor positive tumour (MDA 231, MDA 468 or A 431 tumors); set-up: species or system nude mice; settings: mouse, in vivo, iv
Description: Biodistribution of radioactivity may be determined either with standard imaging techniques in nude mice weighing 20+5 g and bearing an EGF receptor positive tumour (MDA 231, MDA 468 or A 431 tumors) or through serial sacrifice of a number of such animals and determination of the organ radioactivity. Compound of Example 4 is administered i.v. to the animals at a dosage corresponding to 90-10 μCi and the radioactivity is assessed 5 min, 10 min, 15 min, 30 min, 60 min, 20 hrs and 48 hrs.

Compound `CC(=O)N[C@H](Cc1ccc(Cl)cc1)C(=O)N[C@H](Cc1ccc(Cl)cc1)C(=O)N[C@H](Cc1c[nH]c2ccccc12)C(=O)N[C@@H](CO)C(=O)N[C@@H](Cc1ccc(O)cc1)C(=O)N[C@H](CCCCNC(=O)CN(CCN(CCN(CC(=O)O)CC(=O)O)CC(=O)O)CC(=O)O)C(=O)N[C@@H](CC(C)C)C(=O)N[C@@H](CCCNC(=N)N)C(=O)N1CCC[C@H]1C(=O)N[C@H](C)C(N)=O` [^111In labelled compound of Example 8, metal not drawn] (Ac-[dPhe(4-Cl)][dPhe(4-Cl)][dW]SY[dK](DTPA)LRP[dA]-NH2) has an IC50 [1] of 1.1 nM.

Compound DTPA-β-Ala-mEGF [Example 3] has an IC50 [2] of 1.3 nM.

“^111In Labeled DTPA-β-Ala-mEGF [Example 4]” was tested, and the IC50 [3] was 3 nM, the “Localisation of radioactivity 5 minutes after injection” value [4] was “radioactivity is detected in the liver, kidneys, urinary bladder and in the tumor site” and the “Localisation of radioactivity 60 min after injection” value [4] was “Radioactivity is increasing and is localized on the tumor site”.
